Measurements: patent US20190040368

Biological target: T1, recombinant human iduronate-2 sulfatase (rhIDS)
T1 chain: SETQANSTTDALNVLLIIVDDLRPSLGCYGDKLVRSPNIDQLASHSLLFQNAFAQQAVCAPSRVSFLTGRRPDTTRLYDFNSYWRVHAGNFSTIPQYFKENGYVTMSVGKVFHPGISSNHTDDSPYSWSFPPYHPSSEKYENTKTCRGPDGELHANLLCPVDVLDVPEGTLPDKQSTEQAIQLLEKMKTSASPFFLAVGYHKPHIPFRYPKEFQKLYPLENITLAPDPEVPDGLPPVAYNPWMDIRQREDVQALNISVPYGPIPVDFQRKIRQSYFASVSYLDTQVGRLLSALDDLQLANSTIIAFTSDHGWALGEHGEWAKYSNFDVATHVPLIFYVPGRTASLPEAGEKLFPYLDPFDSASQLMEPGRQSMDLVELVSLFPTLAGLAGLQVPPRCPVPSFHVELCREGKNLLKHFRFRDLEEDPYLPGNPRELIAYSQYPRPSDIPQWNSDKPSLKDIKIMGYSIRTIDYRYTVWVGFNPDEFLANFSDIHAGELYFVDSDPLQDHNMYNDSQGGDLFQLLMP

B1: Lip2pre-6xHis-BtFGE-WBP1 fusion construct (protein)
chain: MKLSTILFTACATLAAAHHHHHHAGGEEAGPEAGAPSLVGSCGCGNPQRPGAQGSSAAAHRYSREANAPGSVPGGRPSPPTKMVPIPAGVFTMGTDDPQIKQDGEAPARRVAIDAFYMDAYEVSNAEFEKFVNSTGYLTEAEKFGDSFVFEGMLSEQVKSDIQQAVAAAPWWLPVKGANWRHPEGPDSTVLHRPDHPVLHVSWNDAVAYCTWAGKRLPTEAEWEYSCRGGLQNRLFPWGNKLQPKGQHYANIWQGEFPVTNTGEDGFRGTAPVDAFPPNGYGLYNIVGNAWEWTSDWWTVHHSAEETINPKGPPSGKDRVKKGGSYMCHKSYCYRYRCAARSQNTPDSSASNLGFRCAADHLPTTGADHLPTTGFTMLNPYYRLTLEQTGTTNFSAIYSTTFKIPDQHGVFTFNLDYKRPGYTFIEEKTRATIRHTANDEWPRSWEITNSWVYLTSAVMVVIAWFLFVVFYLFVGKADKEAVHKQ
Which % active rhIDS (4MU activity against ELISA); 1 copy rhIDS, 2 copy BtFGE-WBPI (POX/Hp4d) does the source give for B1 here?
Its % active rhIDS (4MU activity against ELISA); 1 copy rhIDS, 2 copy BtFGE-WBPI (POX/Hp4d) is 124%.

B2: Hemicentrotus pulcherrimus FGE fusion protein (Lip2pre-HpFGE-6HIS-HDEL) (protein)
chain: ENEDINQNISPTQSHTTATTEEELAEARGEEIDSDPTSEGSGAGEGCGCGSSALNRNHDEDALGLALEENLHDHVQEGAALKYSREANDPISMDHPEANVGAFPRTNQMNFIEGGTFRMGTDKAKIYLDGESPSRLVTLDPYYFDVYEVSNSEFELFVNTTSYITEAEKFGDSFVLEARISEEVKKDISQVVAAAPWWLPVKGAEWRHPEGPDSSISSRMDHPVTHISWNDATAYCQWAGKRLPTEAEWENAARGGLNNRLFPWGNKLMPKDHHRVNIWQGEFPKVNTAEDGYEGTCPVTAFEPNGYGLYNTVGNAWEWVADWWTTVHSPESQNNPVGPDEGTDKVKKGGSYMCHISYCYRYRCEARSQNSPDSSACNLGFRCAATNLPEDIPCSNCNDSTPHHHHHHHDEL
B2 was tested. Which % FGly conversion (nano-LC MS); strain T148 (OXYY1801; HpFGE) did it give?
The % FGly conversion (nano-LC MS); strain T148 (OXYY1801; HpFGE) was 8.1%.

And the % FGly conversion (nano-LC MS); strain T148 (OXYY1801; HpFGE) (20° C.)?
The % FGly conversion (nano-LC MS); strain T148 (OXYY1801; HpFGE) (20° C.) was 68.1%.

And the % FGly conversion (nano-LC MS); strain T148 (OXYY1801; HpFGE), duplicate?
Its % FGly conversion (nano-LC MS); strain T148 (OXYY1801; HpFGE), duplicate is 3.72%.

What about the % FGly conversion-re-analyzed samples; DG29U7#7, OXYY1801; HpFGE of the same protein?
The % FGly conversion-re-analyzed samples; DG29U7#7, OXYY1801; HpFGE was 19.2%.

And the % FGly conversion-re-analyzed samples; DG33U1#6, OXYY1801, HpFGE?
The % FGly conversion-re-analyzed samples; DG33U1#6, OXYY1801, HpFGE was 8.3%.

And the % FGly conversion-re-analyzed samples; DG33U3#6, OXYY1801; HpFGE (20° C.)?
Its % FGly conversion-re-analyzed samples; DG33U3#6, OXYY1801; HpFGE (20° C.) is 84.5%.

What about the “active rhIDS (4MU fluorogenic activity assay against sandwich ELISA), co-expression in Y. lipolytica” value (“active rhIDS … in Y. lipolytica” for short) of the same protein?
Its value is “All Y. lipolytica strains co-expressing rFGE with rhIDS resulted in the expression of active rhIDS”.

B3: MNS1-BtFGE-6xHis fusion construct (protein)
chain: MSFNIPKTTPNFSAKARKLEDQLWQASGLEKSKDSTLPLYKDKPYGEGFVARTTSGRRRRNIIYGVVVGLLFWAIYTFSRSLDGNVSLKDGIKDYEFKGWKGRGKPKTNWVAEQNAVKQAFVDSWNGYHKYAWGKDVYKPQTKTGKNMGPKPLGWFIVDSLDSGGEEAGPEAGAPSLVGSCGCGNPQRPGAQGSSAAAHRYSREANAPGSVPGGRPSPPTKMVPIPAGVFTMGTDDPQIKQDGEAPARRVAIDAFYMDAYEVSNAEFEKFVNSTGYLTEAEKFGDSFVFEGMLSEQVKSDIQQAVAAAPWWLPVKGANWRHPEGPDSTVLHRPDHPVLHVSWNDAVAYCTWAGKRLPTEAEWEYSCRGGLQNRLFPWGNKLQPKGQHYANIWQGEFPVTNTGEDGFRGTAPVDAFPPNGYGLYNIVGNAWEWTSDWWTVHHSAEETINPKGPPSGKDRVKKGGSYMCHKSYCYRYRCAARSQNTPDSSASNLGFRCAADHLPTTGADHLPTTGHHHHHH
How did the “% FGly conversion; one copy of rhIDS and 2 copies of BtFGE-MNS1” value turn out when B3 was run?
Its value is 100% FGly conversion.

And the % active rhIDS (4MU activity against ELISA); 1 copy rhIDS, 2 copy BtFGE-MNS1 (POX/Hp4d)?
The % active rhIDS (4MU activity against ELISA); 1 copy rhIDS, 2 copy BtFGE-MNS1 (POX/Hp4d) was 98%.

What about the “% activity of rhIDS; one copy of rhIDS and 2 copies of BtFGE-MNS1” value of the same protein?
The value was 81.5% activity.

B4: Tupaia chinensis Lip2-TupFGE-His6-HDEL fusion construct (protein)
chain: EEARTGAGATSAQGPCGCGTPQRPGSHGSSAAAHRYSREANVPGPVPGERQPEATKMVPIPAGVFTMGTDDPQIKQDGEAPARRVAIDAFYMDAYEVSNAEFEKFVNSTGYLTEAEKFGDSFVFEGMLSEQVKTGIQQAVAAAPWWLPVKGANWRHPEGPDSTILHRADHPVLHVSWNDAVAYCTWAGKRLPTEAEWEYSCRGGLQNRLFPWGNKLQPRGQHYANIWQGEFPVTNTAEDGFQGTAPVDAFPPNGYGLYNIVGNAWEWTSDWWTVYHSVEETLNPKGPPSGKDRVKKGGSYMCHKSYCYRYRCAARSQNTPDSSASNLGFRCAADRLPTHHHHHHHDEL
With B4 as the protein, how does the % activity of rhIDS; co-expression with TupFGE read?
The % activity of rhIDS; co-expression with TupFGE was 51%.

B5: Gallus gallus Lip2-GgFGE-His6-HDEL fusion construct (protein)
chain: GKETAPGGNCGCSASRSRGGEREAVATVRRYSAAANDGRSSGRGPMVAIPGGVFTMGTDEPEIQQDGEWPARRVHVNSFYMDQYEVSNQEFERFVNSTGYLTEAEKFGDSFVFEGMLSEEVKAEIHQAVAAAPWWLPVKGANWRQPEGPGSSILSRMDHPVLHVSWNDAVAFCTWAGKRLPTEAEWEYGCRGGLEKRLFPWGNKLQPKGQHYANIWQGVFPTNNTAEDGYKGTAPVTAFPPNGYGLYNIVGNAWEWTSDWWAVHHSADEAHNPKGPSSGTDRVKKGGSYMCHKSYCYRYRCAARSQNTPDSSASNLGFRCAADALPDPQHHHHHHHDEL
How did the % activity of rhIDS; co-expression with GgFGE turn out when B5 was run?
The % activity of rhIDS; co-expression with GgFGE was 33%.

B6: Chimeric Lip2pre-BtFGE-HpFGE-6xHis-HDEL fusion construct (protein)
chain: MKLSTILFTACATLAAAAGGEEAGPEAGAPSLVGSCGCGNPQRPGAQGSSAAAHRYSREANAPGSVPGGRPSPPTKMVPIPAGVFTMGTDKAKIYLDGESPSRLVTLDPYYFDVYEVSNSEFELFVNTTSYITEAEKFGDSFVLEARISEEVKKDISQVVAAAPWWLPVKGAEWRHPEGPDSSISSRMDHPVTHISWNDATAYCQWAGKRLPTEAEWENAARGGLNNRLFPWGNKLMPKDHHRVNIWQGEFPKVNTAEDGYEGTCPVTAFEPNGYGLYNTVGNAWEWVADWWTTVHSPESQNNPVGPDEGTDKVKKGGSYMCHISYCYRYRCEARSQNSPDSSACNLGFRCAATNLPEDIPCSNCNDSTPHHHHHHHDEL
Which % active rhIDS (4MU activity against ELISA); 1 copy rhIDS, 2 copy ChFGE (POX/Hp4d)-20° C. does the source give for B6 here?
The % active rhIDS (4MU activity against ELISA); 1 copy rhIDS, 2 copy ChFGE (POX/Hp4d)-20° C. was 0%.

And the % active rhIDS (4MU activity against ELISA); 1 copy rhIDS, 2 copy ChFGE (POX/Hp4d)-28° C.?
The % active rhIDS (4MU activity against ELISA); 1 copy rhIDS, 2 copy ChFGE (POX/Hp4d)-28° C. was 0%.

B7: Columba livia Lip2-C1FGE-His6-HDEL fusion construct (protein)
chain: MVVIPGGVFTMGTDEPAIQQDGEWPVRKVHVNSFYMDRYEVSNEDFERFVNSTGYVTEAEKFGDSFVFEGMLSEEVKAEIHQAVAAAPWWLPVKGANWKHPEGPDSNISNRMDHPVLHVSWNDAVAFCTWAGKRLPTEAEWEYSCRGGLENRLFPWGNKLQPKGQHYANIWQGVFPTNNTAEDGYKGTAPVTAFPPNGYGLYNIVGNAWEWTADWWAVHHSTEEVHNPKGPSSGTDRVKKGGSYMCHKSYCYRYRCAARSQNTPDSSASNLGFRCAADASPELPHHHHHHHDEL
How did the % activity of rhIDS; co-expression with ClFGE turn out when B7 was run?
The % activity of rhIDS; co-expression with ClFGE was 61%.

B8: Monodelphis domestica Lip2-MdFGE-His6-HDEL fusion construct (protein)
chain: AARGLGSEAGSAAADAAHPAGTCGCGSPQRPGTAAHRYSREANVAEPASAERPVLTSQMAHIPAGVFTMGTDEPQIKQDGEGPARRVRINSFYMDLYEVSNAEFERFVNSTGYVTEAEKFGDSFVFDSMLSDQVKSDIHQAVAAAPWWLPVKGANWRHPEGPDSSILHRRDHPVLHVSWNDAVAYCTWAGKRLPTEAEWEYSCRGGLENRLFPWGNKLQPKGQHYANIWQGEFPVSNTGEDGYQGTAPVTAFPPNGYGLYNIVGNAWEWTSDWWTVHHSADETLDPKGPPSGSDRVKKGGSYMCHKSYCYRYRCAARSQNTPDSSASNLGFRCAADRLPDTHHHHHHHDEL
With B8 as the protein, how does the % activity of rhIDS; co-expression with MdFGE read?
The % activity of rhIDS; co-expression with MdFGE was 58%.

B9: Human FGE fusion protein (Lip2pre-hFGE-HDEL) (protein)
chain: SQEAGTGAGAGSLAGSCGCGTPQRPGAHGSSAAAHRYSREANAPGPVPGERQLAHSKMVPIPAGVFTMGTDDPQIKQDGEAPARRVTIDAFYMDAYEVSNTEFEKFVNSTGYLTEAEKFGDSFVFEGMLSEQVKTNIQQAVAAAPWWLPVKGANWRHPEGPDSTILHRPDHPVLHVSWNDAVAYCTWAGKRLPTEAEWEYSCRGGLHNRLFPWGNKLQPKGQHYANIWQGEFPVTNTGEDGFQGTAPVDAFPPNGYGLYNIVGNAWEWTSDWWTVHHSVEETLNPKGPPSGKDRVKKGGSYMCHRSYCYRYRCAARSQNTPDSSASNLGFRCAADRLPTMDHDEL
Which “active rhIDS … in Y. lipolytica” value does the source give for B9 here?
Its value is “All Y. lipolytica strains co-expressing rFGE with rhIDS resulted in the expression of active rhIDS”.

B10: Streptomyces coelicolor FGE fusion protein (Lip2pre-ScFGE-6HIS-HDEL) (protein)
chain: MAVAAPSPAAAAEPGPAARPRSTRGQVRLPGGEFAMGDAFGEGYPADGETPVHTVRLRPFHIDETAVTNARFAAFVKATGHVTDAERFGSSAVFHLVVAAPDADVLGSAAGAPWWINVRGAHWRRPEGARSDITGRPNHPVVHVSWNDATAYARWAGKRLPTEAEWEYAARGGLAGRRYAWGDELTPGGRWRCNIWQGRFPHVNTAEDGHLSTAPVKSYRPNGHGLWNTAGNVWEWCSDWFSPTYYAESPTVDPHGPGTGAARVLRGGSYLCHDSYCNRYRVAARSSNTPDSSSGNLGFRCANDADLTSGSAAEHHHHHHHDEL
B10 was tested. Which “active rhIDS … in Y. lipolytica” value did it give?
The value was “All Y. lipolytica strains co-expressing rFGE with rhIDS resulted in the expression of active rhIDS”.
